Data published in article doi:10.1101/2020.11.06.371997.

B1: TTAGGG4 duplex (dsDNA)
DNA 1: TTAGGGTTAGGGTTAGGGTTAGGG
DNA 2: CCCTAACCCTAACCCTAACCCTAA
B2: TTAGGG2 duplex (dsDNA)
DNA 1: GGTTAGGGTTAG
DNA 2: CTAACCCTAACC

Columns and labels:
Trf2ΔN-FG3 (UmTrf2) [1] = molecular target: T1, Trf2ΔN-FG3 (UmTrf2) (Ustilago maydis, UniProt A0A0D1E1Z3 415-1528); experiment: EMSA
Trf2ΔN-FG3 (UmTrf2) [2] = molecular target: T1, Trf2ΔN-FG3 (UmTrf2); experiment: EMSA; remark: listed apart in the source

Binder	Kd (Trf2ΔN-FG3 (UmTrf2) [1])	binding result (Trf2ΔN-FG3 (UmTrf2) [2])
B1	20 nM	
B2		no binding
